Measurements taken from article doi:10.1101/2021.06.25.449899 (bioRxiv, 2021).

Molecular target: the molecule itself
Assay: SEC-MALS

B1: Mycobacterium tuberculosis transcription termination factor Rho, wild type (enzyme)
chain: TDTDLITAGESTDGKPSDAAATDPPDLNADEPAGSLATMVLPELRALANRAGVKGTSGMRKNELIAAIEEIRRQANGAPAVDRSAQEHDKGDRPPSSEAPATQGEQTPTEQIDSQSQQVRPERRSATREAGPSGSGERAGTAADDTDNRQGGQQDAKTEERGTDAGGDQGGDQQASGGQQARGDEDGEARQGRRGRRFRDRRRRGERSGDGAEAELREDDVVQPVAGILDVLDNYAFVRTSGYLPGPHDVYVSMNMVRKNGMRRGDAVTGAVRVPKEGEQPNQRQKFNPLVRLDSINGGSVEDAKKRPEFGKLTPLYPNQRLRLETSTERLTTRVIDLIMPIGKGQRALIVSPPKAGKTTILQDIANAITRNNPECHLMVVLVDERPEEVTDMQRSVKGEVIASTFDRPPSDHTSVAELAIERAKRLVEQGKDVVVLLDSITRLGRAYNNASPASGRILSGGVDSTALYPPKRFLGAARNIEEGGSLTIIATAMVETGSTGDTVIFEEFKGTGNAELKLDRKIAERRVFPAVDVNPSGTRKDELLLSPDEFAIVHKLRRVLSGLDSHQAIDLLMSQLRKTKNNYEFLVQVSKTTPGSMDSD
- stoichiometry N: 6
